In the Human Domainome abundance scans (Beltran et al. 2025) one finds abundance fitness data, which are given here for 91 substances.

± gives the uncertainty stated by the source.

The nature of this data set: abundance fitness (aPCA) (normalised: wild type 0, dead -1); higher = more abundant; growth selection in yeast, the domain comes from the species named. As to conditions: Homo sapiens.
“SAFB-like transcription modulator K53H, Q9NWH9”: the abundance fitness was -0.039 ± 0.14.

“SAFB-like transcription modulator K53I, Q9NWH9” came in with an abundance fitness of -0.369 ± 0.08.

As to “SAFB-like transcription modulator K53M, Q9NWH9”, the abundance fitness was -0.407 ± 0.12.

As to “SAFB-like transcription modulator K53N, Q9NWH9”, the abundance fitness is -0.295 ± 0.11.

With “SAFB-like transcription modulator K53P, Q9NWH9”, the abundance fitness was -0.778 ± 0.058.

Take “SAFB-like transcription modulator K53Q, Q9NWH9”: the abundance fitness was -0.159 ± 0.084.

In the case of “SAFB-like transcription modulator K53R, Q9NWH9”, the abundance fitness came out at 0.05 ± 0.059.

For “SAFB-like transcription modulator K53S, Q9NWH9”, the abundance fitness was -0.141 ± 0.043.

For the substance “SAFB-like transcription modulator K53T, Q9NWH9”, the abundance fitness is -0.03 ± 0.084.

On to “SAFB-like transcription modulator K53V, Q9NWH9”, for which the abundance fitness was -0.184 ± 0.051.

Regarding “SAFB-like transcription modulator K53Y, Q9NWH9”, the abundance fitness is -0.517 ± 0.18.

Regarding “SAFB-like transcription modulator L25A, Q9NWH9”, the abundance fitness was -0.385 ± 0.032.

As for “SAFB-like transcription modulator L25D, Q9NWH9”, the abundance fitness is -0.665 ± 0.054.

“SAFB-like transcription modulator L25E, Q9NWH9” returned an abundance fitness of -0.308 ± 0.1.

Consider “SAFB-like transcription modulator L25F, Q9NWH9”, for which the abundance fitness was -0.312 ± 0.061.

Take “SAFB-like transcription modulator L25G, Q9NWH9”: the abundance fitness is -0.715 ± 0.071.

As to “SAFB-like transcription modulator L25H, Q9NWH9”, the abundance fitness is -0.732 ± 0.16.

On to “SAFB-like transcription modulator L25I, Q9NWH9”, for which the abundance fitness is -0.467 ± 0.11.

The substance “SAFB-like transcription modulator L25K, Q9NWH9” displayed an abundance fitness of -0.407 ± 0.11.

For “SAFB-like transcription modulator L25M, Q9NWH9”, the abundance fitness is -0.768 ± 0.045.

The substance “SAFB-like transcription modulator L25N, Q9NWH9” had an abundance fitness of -0.172 ± 0.18.

The substance “SAFB-like transcription modulator L25P, Q9NWH9” yielded an abundance fitness of -0.718 ± 0.071.

For the substance “SAFB-like transcription modulator L25Q, Q9NWH9”, the abundance fitness is -0.181 ± 0.31.

“SAFB-like transcription modulator L25R, Q9NWH9” came in with an abundance fitness of -0.663 ± 0.05.

Turning to “SAFB-like transcription modulator L25S, Q9NWH9”, the abundance fitness was -0.745 ± 0.077.

“SAFB-like transcription modulator L25T, Q9NWH9” came in with an abundance fitness of -0.536 ± 0.063.

In turn, “SAFB-like transcription modulator L25V, Q9NWH9” yielded an abundance fitness of -0.748 ± 0.061.

Substance “SAFB-like transcription modulator L25W, Q9NWH9” registered an abundance fitness of -0.219 ± 0.055.

For “SAFB-like transcription modulator L30A, Q9NWH9”, the abundance fitness was -0.581 ± 0.035.

“SAFB-like transcription modulator L30C, Q9NWH9” gave an abundance fitness of -0.497 ± 0.083.

As for “SAFB-like transcription modulator L30D, Q9NWH9”, the abundance fitness was -0.65 ± 0.083.

Substance “SAFB-like transcription modulator L30E, Q9NWH9” showed an abundance fitness of -0.6 ± 0.05.

Take “SAFB-like transcription modulator L30F, Q9NWH9”: the abundance fitness is -0.706 ± 0.055.

Consider “SAFB-like transcription modulator L30H, Q9NWH9”, for which the abundance fitness was -0.902 ± 0.17.

“SAFB-like transcription modulator L30I, Q9NWH9” registered an abundance fitness of -0.129 ± 0.067.

“SAFB-like transcription modulator L30K, Q9NWH9”: the abundance fitness was -1.33 ± 0.27.

As to “SAFB-like transcription modulator L30N, Q9NWH9”, the abundance fitness is -0.267 ± 0.19.

As to “SAFB-like transcription modulator L30P, Q9NWH9”, the abundance fitness was -0.716 ± 0.067.

“SAFB-like transcription modulator L30Q, Q9NWH9” displayed an abundance fitness of -0.959 ± 0.17.

“SAFB-like transcription modulator L30R, Q9NWH9” came in with an abundance fitness of -0.949 ± 0.056.

Substance “SAFB-like transcription modulator L30S, Q9NWH9” yielded an abundance fitness of -0.776 ± 0.058.

In turn, “SAFB-like transcription modulator L30T, Q9NWH9” gave an abundance fitness of -0.936 ± 0.11.

“SAFB-like transcription modulator L30V, Q9NWH9” displayed an abundance fitness of -0.295 ± 0.05.

Take “SAFB-like transcription modulator L30W, Q9NWH9”: the abundance fitness was -0.748 ± 0.098.

As for “SAFB-like transcription modulator L30Y, Q9NWH9”, the abundance fitness is -1 ± 0.13.

In turn, “SAFB-like transcription modulator L34A, Q9NWH9” came in with an abundance fitness of -0.767 ± 0.092.

The substance “SAFB-like transcription modulator L34C, Q9NWH9” returned an abundance fitness of -0.496 ± 0.1.

The substance “SAFB-like transcription modulator L34D, Q9NWH9” returned an abundance fitness of -0.414 ± 0.12.

Substance “SAFB-like transcription modulator L34E, Q9NWH9” returned an abundance fitness of -0.594 ± 0.087.

The substance “SAFB-like transcription modulator L34F, Q9NWH9” registered an abundance fitness of -0.945 ± 0.2.

Substance “SAFB-like transcription modulator L34G, Q9NWH9” yielded an abundance fitness of -0.829 ± 0.043.

As to “SAFB-like transcription modulator L34H, Q9NWH9”, the abundance fitness was -0.465 ± 0.38.

As for “SAFB-like transcription modulator L34I, Q9NWH9”, the abundance fitness was -1 ± 0.31.

For the substance “SAFB-like transcription modulator L34K, Q9NWH9”, the abundance fitness is -0.864 ± 0.078.

The substance “SAFB-like transcription modulator L34M, Q9NWH9” had an abundance fitness of -0.678 ± 0.1.

For “SAFB-like transcription modulator L34N, Q9NWH9”, the abundance fitness was -0.964 ± 0.45.

As for “SAFB-like transcription modulator L34P, Q9NWH9”, the abundance fitness is -0.8 ± 0.084.

In turn, “SAFB-like transcription modulator L34Q, Q9NWH9” displayed an abundance fitness of -0.673 ± 0.057.

With “SAFB-like transcription modulator L34R, Q9NWH9”, the abundance fitness was -0.969 ± 0.069.

Consider “SAFB-like transcription modulator L34S, Q9NWH9”, for which the abundance fitness was -0.778 ± 0.038.

Regarding “SAFB-like transcription modulator L34T, Q9NWH9”, the abundance fitness was -0.831 ± 0.067.

As for “SAFB-like transcription modulator L34V, Q9NWH9”, the abundance fitness was -0.614 ± 0.068.

Take “SAFB-like transcription modulator L34W, Q9NWH9”: the abundance fitness was -1.01 ± 0.057.

For the substance “SAFB-like transcription modulator L39A, Q9NWH9”, the abundance fitness is -0.498 ± 0.069.

For the substance “SAFB-like transcription modulator L39C, Q9NWH9”, the abundance fitness is -0.446 ± 0.079.

Substance “SAFB-like transcription modulator L39D, Q9NWH9” came in with an abundance fitness of -0.755 ± 0.075.

The substance “SAFB-like transcription modulator L39E, Q9NWH9” returned an abundance fitness of -0.365 ± 0.054.

Substance “SAFB-like transcription modulator L39F, Q9NWH9” registered an abundance fitness of -0.409 ± 0.077.

“SAFB-like transcription modulator L39G, Q9NWH9”: the abundance fitness is -0.475 ± 0.045.

In the case of “SAFB-like transcription modulator L39H, Q9NWH9”, the abundance fitness is -0.275 ± 0.081.

With “SAFB-like transcription modulator L39I, Q9NWH9”, the abundance fitness was -0.231 ± 0.074.

“SAFB-like transcription modulator L39K, Q9NWH9” had an abundance fitness of -0.179 ± 0.046.

“SAFB-like transcription modulator L39M, Q9NWH9” showed an abundance fitness of 0.017 ± 0.047.

With “SAFB-like transcription modulator L39N, Q9NWH9”, the abundance fitness was -0.596 ± 0.12.

“SAFB-like transcription modulator L39P, Q9NWH9” yielded an abundance fitness of -0.81 ± 0.067.

As to “SAFB-like transcription modulator L39Q, Q9NWH9”, the abundance fitness is -0.499 ± 0.11.

For “SAFB-like transcription modulator L39R, Q9NWH9”, the abundance fitness was -0.296 ± 0.05.

“SAFB-like transcription modulator L39T, Q9NWH9” displayed an abundance fitness of -0.631 ± 0.043.

On to “SAFB-like transcription modulator L39V, Q9NWH9”, for which the abundance fitness is -0.356 ± 0.059.

In the case of “SAFB-like transcription modulator L39W, Q9NWH9”, the abundance fitness is -0.591 ± 0.084.

For the substance “SAFB-like transcription modulator L39Y, Q9NWH9”, the abundance fitness was -0.305 ± 0.038.

With “SAFB-like transcription modulator L48A, Q9NWH9”, the abundance fitness was -0.432 ± 0.053.

The substance “SAFB-like transcription modulator L48C, Q9NWH9” came in with an abundance fitness of -0.51 ± 0.042.

The substance “SAFB-like transcription modulator L48D, Q9NWH9” had an abundance fitness of -0.274 ± 0.071.

For the substance “SAFB-like transcription modulator L48E, Q9NWH9”, the abundance fitness was -0.478 ± 0.086.

Take “SAFB-like transcription modulator L48F, Q9NWH9”: the abundance fitness is -0.886 ± 0.062.

Regarding “SAFB-like transcription modulator L48G, Q9NWH9”, the abundance fitness is -0.472 ± 0.054.

“SAFB-like transcription modulator L48H, Q9NWH9” displayed an abundance fitness of -0.52 ± 0.059.

In the case of “SAFB-like transcription modulator L48I, Q9NWH9”, the abundance fitness was -0.513 ± 0.063.

As to “SAFB-like transcription modulator L48K, Q9NWH9”, the abundance fitness was -0.371 ± 0.055.

Turning to “SAFB-like transcription modulator L48M, Q9NWH9”, the abundance fitness is -0.075 ± 0.04.
